Read-outs that look alike come from different tables or passages of the source.
What was measured:
[1] = system: CD4 T cell clone BDC-5.2.9; assay type: cell-based, NOD mouse; details: 24 h
[2] = molecular target: islet amyloid polypeptide (IAPP), peptide KN14 peptide on I-Ag7 (mouse); experiment: IFN-γ ELISA
[3] = molecular target: islet amyloid polypeptide (IAPP), peptide KQ10 peptide on I-Ag7 (mouse); experiment: IFN-γ ELISA
[4] = molecular target: islet amyloid polypeptide (IAPP), peptide KG38 peptide on I-Ag7 (mouse); experiment: IFN-γ ELISA
[5] = molecular target: islet amyloid polypeptide (IAPP), peptide TS17 peptide on I-Ag7 (mouse); experiment: IFN-γ ELISA
[6] = molecular target: islet amyloid polypeptide (IAPP), peptide KS20 peptide on I-Ag7 (mouse); experiment: IFN-γ ELISA
[7] = molecular target: islet amyloid polypeptide (IAPP), peptide NS18 peptide on I-Ag7 (mouse); experiment: IFN-γ ELISA
[8] = molecular target: islet amyloid polypeptide (IAPP), peptide CS19 peptide on I-Ag7 (mouse); experiment: IFN-γ ELISA
[9] = molecular target: islet amyloid polypeptide (IAPP), peptide KV17 peptide on I-Ag7 (mouse); experiment: IFN-γ ELISA
[10] = T cell clone BDC-5.2.9 (2 × 10^4) with peritoneal exudate cells (2.5 × 10^4) and peptide, IFN-γ in culture supernatants of duplicate wells by ELISA

CC(C)C[C@H](NC(=O)[C@H](CC(N)=O)NC(=O)[C@H](CC(N)=O)NC(=O)[C@H](CO)NC(=O)[C@H](CO)NC(=O)[C@H](CCCNC(=N)N)NC(=O)[C@@H](NC(=O)[C@H](CC(C)C)NC(=O)[C@H](Cc1ccccc1)NC(=O)[C@H](CC(N)=O)NC(=O)[C@H](C)NC(=O)[C@H](CC(C)C)NC(=O)[C@H](CCCNC(=N)N)NC(=O)[C@H](CCC(N)=O)NC(=O)[C@@H](NC(=O)[C@H](C)NC(=O)[C@@H]1CSSC[C@H](NC(=O)[C@@H](N)CCCCN)C(=O)N[C@@H](CC(N)=O)C(=O)N[C@@H]([C@@H](C)O)C(=O)N[C@@H](C)C(=O)N[C@@H]([C@@H](C)O)C(=O)N1)[C@@H](C)O)C(C)C)C(=O)NCC(=O)N1CCC[C@H]1C(=O)N[C@H](C(=O)N[C@@H](CC(C)C)C(=O)N1CCC[C@H]1C(=O)N1CCC[C@H]1C(=O)N[C@H](C(=O)N[C@@H](CC(N)=O)C(=O)N[C@H](C(=O)NCC(=O)N[C@@H](CO)C(=O)N[C@@H](CC(N)=O)C(=O)N[C@H](C(=O)N[C@@H](Cc1ccc(O)cc1)C(=O)NCC(=O)O)[C@@H](C)O)C(C)C)[C@@H](C)O)C(C)C [KG38]
EC50 [1]: 0.2 nM

BDC-5.2.9
EC50 of peptide [2]: > 100000 nM | EC50 of peptide [3]: > 100000 nM | EC50 of peptide [4]: 0.2 nM | EC50 of peptide [5]: > 100000 nM | EC50 of peptide [6]: 0.2 nM | EC50 of peptide [7]: > 100000 nM | EC50 of peptide [8]: 5 nM | EC50 of peptide [9]: 10 nM

KCNTATCATQ [KQ10]
EC50 [1, 10]: > 100000 nM

KCNTATCATQRLAN [KN14]
EC50 [1, 10]: > 100000 nM

NTATCATQRLANFLVRSS [NS18]
EC50 [1, 10]: > 100000 nM

TATCATQRLANFLVRSS [TS17]
EC50 [1, 10]: > 100000 nM

Source: publication PMC3815676 (Journal of immunology (Baltimore, Md. : 1950), 2013)
